The target in this experiment is T1, HSPC300 (subunit of the WRC) (human, UniProt Q8WUW1 1-75).
T1 construct: HSPC300, human, full length; source: E. coli, purified within the WRC
T1 sequence (looked up): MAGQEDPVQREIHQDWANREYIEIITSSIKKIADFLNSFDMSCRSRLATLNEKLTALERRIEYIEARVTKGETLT
Nature of the experiment: cryo-EM structure; WRC^apo at 1.2 µM in 10 mM HEPES-KOH pH 7.0, 50 mM KCl, 1 mM MgCl2, 1 mM DTT, 5% (v/v) glycerol; 3.0 Å. The conditions noted are these: both partners purified.

The values that follow come from PMC9481577, “Structures reveal a key mechanism of WAVE regulatory complex activation by Rac1 GTPase” (Nature Communications, 2022).

B1: WAVE1(1-230)-(GGS)6-WCA(485-559) (subunit of the WRC) (domain or fragment, human)
chain: MPLVKRNIDPRHLCHTALPRGIKNELECVTNISLANIIRQLSSLSKYAEDIFGELFNEAHSFSFRVNSLQERVDRLSVSVTQLDPKEEELSLQDITMRKAFRSSTIQDQQLFDRKTLPIPLQETYDVCEQPPPLNILTPYRDDGKEGLKFYTNPSYFFDLWKEKMLQDTEDKRKEKRKQKQKNLDRPHEPEKVPRAPHDRRREWQKLAQGPELAEDDANLLHKHIEVANGGGSGGSGGSGGSGGSGGSKRHPSTLPVISDARSVLLEAIRKGIQLRKVEEQREQEAKHERIENDVATILSRRIAVEYSDSEDDSEFDEVDWLE
notes: WAVE1, human, residues 1-230; (GGS)6 linker, written out from the printed formula; WAVE1, human, WCA, residues 485-559; source: E. coli, purified within the WRC
B1: the binding result was “binds”.
